Source: US20250326792A1, “A FORMULATION FOR TREATMENT OF PIGMENTARY DISORDERS” (priority 2022, published 2025)
PHPP = 3-Phenylpyrazolo[3,4-d]pyrimidine (N-terminal cap)

Assays:
[1] = Stability of IS103 API, long term (Condition 2, −20±5° C.); type: physicochemical; settings: for Internal change in attributes: Appearance / Internal change in attributes: Clarity of solution / Internal change in attributes: Color / Internal change in attributes: Color of solution / Internal change in attributes: Odor / API calculated on the anhydrous basis / Appearance white to off white amorphous powder / Related substances (By HPLC) Any Max Impurity / Related substances (By HPLC) Total Impurity / Solubility Sparingly soluble in water / Water Content (By Karl Fischer-Titrator): −20±5° C.
Protocol: The purpose of stability testing is to provide evidence on how the quality of a drug substance or drug product varies with time under the influence of a variety of environmental factors such as temperature, humidity, etc. and to establish a re-test period for the drug substance or a shelf life for the drug product and recommended storage conditions. The study was conducted according to the WHO and schedule-Y guidelines.
The IS103 API is a lyophilized white fluffy powder, and it was filled at sterile condition in glass injection vial which has airlock-rubber capping. This container closure system is same as or simulates the packaging proposed for storage and distribution.
The following test attributes have been selected according to the above said guidelines: • appearance; odour; colour; colour of solution (when IS103 API is soluble in solvent); clarity of solution; degradation and assessment of container closure system.
Testing frequency for long term studies have been designed as per schedule Y. The long-term stability studies have been conducted on 1, 3, 6, 9, 12, 18, 24 and 36 months.
The studies were conducted under appropriate storage conditions (with appropriate tolerances) that test IS103 API thermal stability and its sensitivity to moisture. The IS103 API is intended for storage for 36 months. Accordingly, long term stability studies were done for 36 months. The details of the storage conditions have been furnished hereunder.

NHEM cells = assay: Melanin content assay in NHEM cells; type: cell-based, Human; settings: for % increase in melanin content compared to control / Fold change in melanin content: NHEM CELLS
Protocol: Culture and maintenance of cell lines: B16F10 cells were cultured in RPMI containing 10% fetal bovine serum, 100 units per millilitre (U/mL) penicillin, 0.1 mg/mL streptomycin, and 0.25 microgram per millilitre (μg/mL) amphotericin B at 37 degrees Celsius in a humidified 95% air/5% CO2 incubator. Drug treatment was done 24 hours after seeding. Cells were harvested 48 hours later and melanin content and tyrosinase activity determined in triplicate. NHEM cells were cultured in DMEM containing 10% fetal bovine serum, 100 units per milliliter (U/mL) penicillin, 0.1 mg/mL streptomycin, and 0.25 microgram per millilitre (μg/mL) amphotericin B at 37 degrees Celsius in a humidified 95% air/5% CO2 incubator. Drug treatment was done 24 hours after seeding. Cells were harvested 48 hours later and melanin content and tyrosinase activity determined in triplicate.
IS103 was dissolved in water for injection or DMSO to prepare stock solution of about 50 mg/ml. The stock solution was used for preparation of subsequent dilutions in solvent to achieve working dilutions for treatment ranging 0.1 μg/ml to 1000 μg/ml.
Cells were seeded in a 6-well plate (2×10^4 cells/well) and incubated overnight to allow the cells to adhere. After treating with various test samples for 4 or 5 days, cells were washed with phosphate-buffered saline (PBS), trypsinized, counted, and then lysed in 1 N NaOH at 100° C. for about 1 hour. The melanin content in each sample was calculated by comparison of absorbance at 400 nm of unknown samples with a standard curve obtained using synthetic melanin. IS103 enhances melanin synthesis in a dose dependent manner without significant toxicity. B16F10 and NHEM cells were treated with different concentrations of IS103 ranging from 0.1 to 1000 μg/ml and analysed melanin contents in cells. It was observed that IS103 was able to enhance pigmentation of B16F10 and NHEM cells in a dose-dependent manner (Table 18 and FIGS. 4 and 5). […] To assess the toxicity of the IS103 peptide, cell viability was analyzed by MTT assay.

Substance: PHPP-Tyr-Arg-Ser-Arg-Lys-Tyr-Ser-Ser-Trp-Tyr-NH2 ({PHPP}-YRSRKYSSWY-NH2) [IS103]
- found to be stable for ([1]; long term stability condition (of −20±5° C.)): 36 months
- Internal change in attributes: Appearance ([1]; 1st month): No change
- Internal change in attributes: Clarity of solution ([1]; 1st month): No change
- Internal change in attributes: Color ([1]; 1st month): No change
- Internal change in attributes: Color of solution ([1]; 1st month): No change
- Internal change in attributes: Odor ([1]; 1st month): No change
- API calculated on the anhydrous basis ([1]; 3 M): 99.51%
- Appearance white to off white amorphous powder ([1]; 3 M): White
- Related substances (By HPLC) Any Max Impurity ([1]; 3 M): 0.22%
- Related substances (By HPLC) Total Impurity ([1]; 3 M): 0.37%
- Solubility Sparingly soluble in water ([1]; 3 M): Complies
- Water Content (By Karl Fischer-Titrator) ([1]; 3 M): 4.06% w/w
- Internal change in attributes: Appearance ([1]; 3rd month): No change
- Internal change in attributes: Clarity of solution ([1]; 3rd month): No change
- Internal change in attributes: Color ([1]; 3rd month): No change
- Internal change in attributes: Color of solution ([1]; 3rd month): No change
- Internal change in attributes: Odor ([1]; 3rd month): No change
- API calculated on the anhydrous basis ([1]; 12 M): 99.11%
- Appearance white to off white amorphous powder ([1]; 12 M): White
- Related substances (By HPLC) Any Max Impurity ([1]; 12 M): 0.36%
- Related substances (By HPLC) Total Impurity ([1]; 12 M): 0.44%
- Solubility Sparingly soluble in water ([1]; 12 M): Complies
- Water Content (By Karl Fischer-Titrator) ([1]; 12 M): 4.45% w/w
- Internal change in attributes: Appearance ([1]; 12th month): No change
- Internal change in attributes: Clarity of solution ([1]; 12th month): No change
- Internal change in attributes: Color ([1]; 12th month): No change
- Internal change in attributes: Color of solution ([1]; 12th month): No change
- Internal change in attributes: Odor ([1]; 12th month): No change
- API calculated on the anhydrous basis ([1]; 18 M): 99.03%
- Appearance white to off white amorphous powder ([1]; 18 M): White
- Related substances (By HPLC) Any Max Impurity ([1]; 18 M): 0.62%
- Related substances (By HPLC) Total Impurity ([1]; 18 M): 0.62%
- Solubility Sparingly soluble in water ([1]; 18 M): Complies
- Water Content (By Karl Fischer-Titrator) ([1]; 18 M): 4.54% w/w
- Internal change in attributes: Appearance ([1]; 18th month): No change
- Internal change in attributes: Clarity of solution ([1]; 18th month): No change
- Internal change in attributes: Color ([1]; 18th month): No change
- Internal change in attributes: Color of solution ([1]; 18th month): No change
- Internal change in attributes: Odor ([1]; 18th month): No change
- API calculated on the anhydrous basis ([1]; 24 M): 98.95%
- Appearance white to off white amorphous powder ([1]; 24 M): White
- Related substances (By HPLC) Any Max Impurity ([1]; 24 M): 0.60%
- Related substances (By HPLC) Total Impurity ([1]; 24 M): 0.82%
- Solubility Sparingly soluble in water ([1]; 24 M): Complies
- Water Content (By Karl Fischer-Titrator) ([1]; 24 M): 4.61% w/w
- Internal change in attributes: Appearance ([1]; 24th month): No change
- Internal change in attributes: Clarity of solution ([1]; 24th month): No change
- Internal change in attributes: Color ([1]; 24th month): No change
- Internal change in attributes: Color of solution ([1]; 24th month): No change
- Internal change in attributes: Odor ([1]; 24th month): No change
- API calculated on the anhydrous basis ([1]; 36 M): 98.73%
- Appearance white to off white amorphous powder ([1]; 36 M): White
- Related substances (By HPLC) Any Max Impurity ([1]; 36 M): 0.84%
- Related substances (By HPLC) Total Impurity ([1]; 36 M): 0.97%
- Solubility Sparingly soluble in water ([1]; 36 M): Complies
- Water Content (By Karl Fischer-Titrator) ([1]; 36 M): 4.56% w/w
- Internal change in attributes: Appearance ([1]; 36th month): No change
- Internal change in attributes: Clarity of solution ([1]; 36th month): No change
- Internal change in attributes: Color ([1]; 36th month): No change
- Internal change in attributes: Color of solution ([1]; 36th month): No change
- Internal change in attributes: Odor ([1]; 36th month): No change
- API calculated on the anhydrous basis ([1]; Initial): 99.73%
- Appearance white to off white amorphous powder ([1]; Initial): White
- Related substances (By HPLC) Any Max Impurity ([1]; Initial): 0.14%
- Related substances (By HPLC) Total Impurity ([1]; Initial): 0.32%
- Solubility Sparingly soluble in water ([1]; Initial): Complies
- Water Content (By Karl Fischer-Titrator) ([1]; Initial): 3.91% w/w
- % increase in melanin content compared to control (NHEM cells; 0.1 μg/mL): 0%
- Fold change in melanin content (NHEM cells; 0.1 μg/mL): 1.0 ± 0.20
- % increase in melanin content compared to control (NHEM cells; 1 μg/mL): 0%
- Fold change in melanin content (NHEM cells; 1 μg/mL): 1.0 ± 0.20
- % increase in melanin content compared to control (NHEM cells; 10 μg/mL): 0%
- Fold change in melanin content (NHEM cells; 10 μg/mL): 1.0 ± 0.20
- % increase in melanin content compared to control (NHEM cells; 50 μg/mL): 40%
- Fold change in melanin content (NHEM cells; 50 μg/mL): 1.4 ± 0.20
- % increase in melanin content compared to control (NHEM cells; 100 μg/mL): 130%
- Fold change in melanin content (NHEM cells; 100 μg/mL): 2.3 ± 0.20
- % increase in melanin content compared to control (NHEM cells; 250 μg/mL): 160%
- Fold change in melanin content (NHEM cells; 250 μg/mL): 2.6 ± 0.20
- % increase in melanin content compared to control (NHEM cells; 500 μg/mL): 180%
- Fold change in melanin content (NHEM cells; 500 μg/mL): 2.8 ± 0.20
- % increase in melanin content compared to control (NHEM cells; 1000 μg/mL): 165%
- Fold change in melanin content (NHEM cells; 1000 μg/mL): 2.7 ± 0.20
- effect on melanin synthesis (FIG. 5) (NHEM cells; NHEM cells, different concentrations, about 48 hours): enhanced melanin synthesis in a dose-dependent manner
